From US5874218, “Method for detecting a target compound in a substance using a nucleic acid ligand” (NeXstar Pharmaceuticals, Inc.) come the findings set out here.

In data set [1] the target is hCG (chorionic gonadotropin) (Homo sapiens, UniProt P01215;P0DN86 P01215:25-116,P0DN86:21-165). The data set is described as follows: dot blot of hCG in urine; detectable at 1.9 nM, saturates above 500 nM; higher signal in low salt buffer with 2 mM MgCl2. To be noted: label: radiolabeled. On the procedure: Test urine (obtained from pregnant individuals) and control urine (obtained from males) samples were pre-filtered through 0.2 mm polysulfone filters (Gelman Sciences) to remove particulate matter. hCG suspended in control urine to various concentrations (300 ml) was blotted onto pre-wetted nitrocellulose filters (from BioRad) under vacuum. Radiolabeled nucleic acid ligand to hCG, H-42 RNA (SEQ ID NO: 4)(100 ml of 1 pmole/ml) was then added to blots and filtered. Blots were immediately washed two times with 300 ml of TEM buffer. The blots were dried and analyzed by autoradiography and phosphorimager (Fuji).
In preliminary studies, anti-hCG antibodies were first applied to nitrocellulose blots to capture hCG and subsequently the radiolabeled RNA was used to detect the hormone. Such anti-hCG antibodies were required only if hCG was suspended in a buffer. However, if hCG in urine was used there was no significant difference in the signal in the presence and absence of antibodies. This may be due to the presence of other proteins in urine that serve as nonspecific carriers, effectively retaining hCG on the membrane. […] The signal saturates at high hCG concentration (>500 nM). Even at 1.9 nM hCG concentration, signal above background level was detected. Compared to control male urine (blots 1–3), the urine from a pregnant […] […]

Data set [2] addresses hTSH (thyroid stimulating hormone) (Homo sapiens, UniProt P01215;P01222 P01215:25-116,P01222:21-132). Kind of data set: dot blot on nitrocellulose, 50-800 nM hTSH, TEM buffer with 0.1% hSA, 0.5 M urea wash. To be noted: tags: Becton Dickinson, Mr 27,700, 9 IU/mg; label: internally radiolabeled. On the procedure:
hTSH was suspended in TEM buffer (300 ml) containing 0.1% hSA (w/v) and applied to pre-wetted nitrocellulose filters (0.45 micron; BioRad) under suction. Gel-purified, internally labeled nucleic acid ligand T-15 (SEQ ID NO: 3) was then applied to the blots in 50 ml of TEM buffer (0.2 pmoles/ml) and filtered gently. Filters were immediately washed three times with 300 ml of 0.5M urea in the same buffer. The blots were dried and analyzed with a phosphorimager and by autoradiography.
The results wherein different concentrations of hTSH (from 800 nM (177 mIU/ml) to 50 nM (11 mIU/ml)) blotted on a nitrocellulose membrane were detected by radiolabeled nucleic acid ligand T-15 are shown in FIG. 4. Very low levels of background binding of RNA to nitrocellulose filters in the absence of hTSH (but with hSA in the buffer) was accomplished by washing blots with 0.5M urea in the binding buffer. This step eliminated most nonspecific binding, yet leaving specific binding of ligand T-15 to hTSH largely unaffected. […] However, with the affinity-selected radiolabeled ligand T-15, the radioactive signal on the blot correlated with the concentration of hTSH used. There is a linear relationship between the radioactive signal and the amount of hTSH up to 100 mIU/ml; the signal saturates above this concentration.

hCG (chorionic gonadotropin), sequence (P01215 25-116, chain 1 of 2, other chains not shown): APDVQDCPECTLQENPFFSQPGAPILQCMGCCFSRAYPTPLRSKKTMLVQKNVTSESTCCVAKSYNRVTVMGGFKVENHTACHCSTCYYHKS
hTSH (thyroid stimulating hormone), sequence (P01215 25-116, chain 1 of 2): as the sequence (P01215 25-116, chain 1 of 2, other chains not shown) above
hTSH (thyroid stimulating hormone), sequence (P01222 21-132, chain 2 of 2): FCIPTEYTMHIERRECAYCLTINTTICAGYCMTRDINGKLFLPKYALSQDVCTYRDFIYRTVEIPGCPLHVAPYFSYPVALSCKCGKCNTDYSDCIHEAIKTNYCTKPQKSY

B1: H-42 (ssRNA)
RNA: GGGAGGACGAUGCGGACAAGGGCCUGAGUGUGGAGGGCACGUGGAGGGGACUGGCCAGACGACUCGCCCGA
modifications: 2'-NH2 pyrimidines (library chemistry)
For the molecule B1, the binding result in data set [1] was “binds”.

B2: T-15 (ssRNA)
RNA: GGGAGGACGAUGCGGAUGUUGGCAGCAGGGUCCGACGGCGUAACCUUGCCAGCUGCAGACGACUCGCCCGA
modifications: 2'-NH2 on all C and U
On to B2, for which the binding result in data set [2] was “binds”.
